In US20220298260A1 (MYTHIC THERAPEUTICS, published 2022):

Target: T1, FOLR1 (R&D Systems, Cat #5646-FR) (human, UniProt P15328 25-233)
T1 construct: Bought soluble protein; also called Folate Receptor 1
Assay: BLI, IgG on anti-human Fc sensor, 50 nM FOLR1

T1 sequence (P15328 25-233 limits assumed): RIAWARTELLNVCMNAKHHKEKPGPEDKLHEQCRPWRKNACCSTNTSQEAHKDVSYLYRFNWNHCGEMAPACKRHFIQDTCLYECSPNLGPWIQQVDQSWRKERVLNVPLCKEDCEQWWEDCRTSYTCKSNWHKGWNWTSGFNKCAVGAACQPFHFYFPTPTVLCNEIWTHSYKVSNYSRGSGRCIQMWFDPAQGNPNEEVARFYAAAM

Binder	binding result
MYT0598 (antibody, V domains shown, IgG) VH: QVQLVQSGAEVVKPGASVKISCKHSGYTFTGYFMNWVKQSPGQSLEWIGRIHPYDGDTFYNQKFQGKATLTVDKSSNTAHMELLSLTSEDFAVYYCTRYDGSRAMDYWGQGTTVTVSS VL: DIVLTQSPLSLAVSLGQPAIISCKASQSVSFAGTSLMHWYHQKPGQQPRLLIYRASNLEAGVPDRFSGSGSKTDFTLTISPVEAEDAATYYCQQSREYPYTFGGGTKLEIK	binds
MYT0597 (antibody, V domains shown, IgG) VH: QVQLVQSGAEVVKPGASVKISCHASGYTFTGYFMNWVKQSPGQSLEWIGRIHPYDGDTFYNQKFQGKATLTVDKSSNTAHMELLSLTSEDFAVYYCTRYDGSRAMDYWGQGTTVTVSS VL: DIVLTQSPLSLAVSLGQPAIISCKASQSVSFAGTSLMHWYHQKPGQQPRLLIYRASNLEAGVPDRFSGSGSKTDFTLTISPVEAEDAATYYCQQSREYPYTFGGGTKLEIK	binds
MYT0604 (antibody, V domains shown, IgG) VH: QVQLVQSGAEVVKPGASVKISCKASGYTFHGYFMNWVKQSPGQSLEWIGRIHPYDGDTFYNQKFQGKATLTVDKSSNTAHMELLSLTSEDFAVYYCTRYDGSRAMDYWGQGTTVTVSS VL: DIVLTQSPLSLAVSLGQPAIISCKASQSVSFAGTSLMHWYHQKPGQQPRLLIYRASNLEAGVPDRFSGSGSKTDFTLTISPVEAEDAATYYCQQSREYPYTFGGGTKLEIK	binds
MYT0612 (antibody, V domains shown, IgG) VH: QVQLVQSGAEVVKPGASVKISCKASGYTFTGYFMNWVKQSPGQSLEWIGRIAPYDGDTFYNQKFQGKATLTVDKSSNTAHMELLSLTSEDFAVYYCTRYDGSRAMDYWGQGTTVTVSS VL: DIVLTQSPLSLAVSLGQPAIISCKASQSVSFAGTSLMHWYHQKPGQQPRLLIYRASNLEAGVPDRFSGSGSKTDFTLTISPVEAEDAATYYCQQSREYPYTFGGGTKLEIK	binds
MYT0615 (antibody, V domains shown, IgG) VH: QVQLVQSGAEVVKPGASVKISCKASGYTFTGYFMNWVKQSPGQSLEWIGRIHPYHGDTFYNQKFQGKATLTVDKSSNTAHMELLSLTSEDFAVYYCTRYDGSRAMDYWGQGTTVTVSS VL: DIVLTQSPLSLAVSLGQPAIISCKASQSVSFAGTSLMHWYHQKPGQQPRLLIYRASNLEAGVPDRFSGSGSKTDFTLTISPVEAEDAATYYCQQSREYPYTFGGGTKLEIK	binds
MYT0620 (antibody, V domains shown, IgG) VH: QVQLVQSGAEVVKPGASVKISCKASGYTFTGYFMNWVKQSPGQSLEWIGRIHPYDGDTFHNQKFQGKATLTVDKSSNTAHMELLSLTSEDFAVYYCTRYDGSRAMDYWGQGTTVTVSS VL: DIVLTQSPLSLAVSLGQPAIISCKASQSVSFAGTSLMHWYHQKPGQQPRLLIYRASNLEAGVPDRFSGSGSKTDFTLTISPVEAEDAATYYCQQSREYPYTFGGGTKLEIK	binds
MYT0608 (antibody, V domains shown, IgG) VH: QVQLVQSGAEVVKPGASVKISCKASGYTFTGYFHNWVKQSPGQSLEWIGRIHPYDGDTFYNQKFQGKATLTVDKSSNTAHMELLSLTSEDFAVYYCTRYDGSRAMDYWGQGTTVTVSS VL: DIVLTQSPLSLAVSLGQPAIISCKASQSVSFAGTSLMHWYHQKPGQQPRLLIYRASNLEAGVPDRFSGSGSKTDFTLTISPVEAEDAATYYCQQSREYPYTFGGGTKLEIK	binds
MYT0601 (antibody, V domains shown, IgG) VH: QVQLVQSGAEVVKPGASVKISCKASGHTFTGYFMNWVKQSPGQSLEWIGRIHPYDGDTFYNQKFQGKATLTVDKSSNTAHMELLSLTSEDFAVYYCTRYDGSRAMDYWGQGTTVTVSS VL: DIVLTQSPLSLAVSLGQPAIISCKASQSVSFAGTSLMHWYHQKPGQQPRLLIYRASNLEAGVPDRFSGSGSKTDFTLTISPVEAEDAATYYCQQSREYPYTFGGGTKLEIK	binds
MYT0606 (antibody, V domains shown, IgG) VH: QVQLVQSGAEVVKPGASVKISCKASGYTFTGHFMNWVKQSPGQSLEWIGRIHPYDGDTFYNQKFQGKATLTVDKSSNTAHMELLSLTSEDFAVYYCTRYDGSRAMDYWGQGTTVTVSS VL: DIVLTQSPLSLAVSLGQPAIISCKASQSVSFAGTSLMHWYHQKPGQQPRLLIYRASNLEAGVPDRFSGSGSKTDFTLTISPVEAEDAATYYCQQSREYPYTFGGGTKLEIK	binds
MYT0619 (antibody, V domains shown, IgG) VH: QVQLVQSGAEVVKPGASVKISCKASGYTFTGYFMNWVKQSPGQSLEWIGRIHPYDGDTHYNQKFQGKATLTVDKSSNTAHMELLSLTSEDFAVYYCTRYDGSRAMDYWGQGTTVTVSS VL: DIVLTQSPLSLAVSLGQPAIISCKASQSVSFAGTSLMHWYHQKPGQQPRLLIYRASNLEAGVPDRFSGSGSKTDFTLTISPVEAEDAATYYCQQSREYPYTFGGGTKLEIK	binds
MYT0607 (antibody, V domains shown, IgG) VH: QVQLVQSGAEVVKPGASVKISCKASGYTFTGYHMNWVKQSPGQSLEWIGRIHPYDGDTFYNQKFQGKATLTVDKSSNTAHMELLSLTSEDFAVYYCTRYDGSRAMDYWGQGTTVTVSS VL: DIVLTQSPLSLAVSLGQPAIISCKASQSVSFAGTSLMHWYHQKPGQQPRLLIYRASNLEAGVPDRFSGSGSKTDFTLTISPVEAEDAATYYCQQSREYPYTFGGGTKLEIK	binds
MYT0599 (antibody, V domains shown, IgG) VH: QVQLVQSGAEVVKPGASVKISCKAHGYTFTGYFMNWVKQSPGQSLEWIGRIHPYDGDTFYNQKFQGKATLTVDKSSNTAHMELLSLTSEDFAVYYCTRYDGSRAMDYWGQGTTVTVSS VL: DIVLTQSPLSLAVSLGQPAIISCKASQSVSFAGTSLMHWYHQKPGQQPRLLIYRASNLEAGVPDRFSGSGSKTDFTLTISPVEAEDAATYYCQQSREYPYTFGGGTKLEIK	binds
MYT0611 (antibody, V domains shown, IgG) VH: QVQLVQSGAEVVKPGASVKISCKASGYTFTGYFMNWVKQSPGQSLEWIGRHHPYDGDTFYNQKFQGKATLTVDKSSNTAHMELLSLTSEDFAVYYCTRYDGSRAMDYWGQGTTVTVSS VL: DIVLTQSPLSLAVSLGQPAIISCKASQSVSFAGTSLMHWYHQKPGQQPRLLIYRASNLEAGVPDRFSGSGSKTDFTLTISPVEAEDAATYYCQQSREYPYTFGGGTKLEIK	binds
MYT0614 (antibody, V domains shown, IgG) VH: QVQLVQSGAEVVKPGASVKISCKASGYTFTGYFMNWVKQSPGQSLEWIGRIHPHDGDTFYNQKFQGKATLTVDKSSNTAHMELLSLTSEDFAVYYCTRYDGSRAMDYWGQGTTVTVSS VL: DIVLTQSPLSLAVSLGQPAIISCKASQSVSFAGTSLMHWYHQKPGQQPRLLIYRASNLEAGVPDRFSGSGSKTDFTLTISPVEAEDAATYYCQQSREYPYTFGGGTKLEIK	binds
MYT0602 (antibody, V domains shown, IgG) VH: QVQLVQSGAEVVKPGASVKISCKASGYHFTGYFMNWVKQSPGQSLEWIGRIHPYDGDTFYNQKFQGKATLTVDKSSNTAHMELLSLTSEDFAVYYCTRYDGSRAMDYWGQGTTVTVSS VL: DIVLTQSPLSLAVSLGQPAIISCKASQSVSFAGTSLMHWYHQKPGQQPRLLIYRASNLEAGVPDRFSGSGSKTDFTLTISPVEAEDAATYYCQQSREYPYTFGGGTKLEIK	binds
MYT0617 (antibody, V domains shown, IgG) VH: QVQLVQSGAEVVKPGASVKISCKASGYTFTGYFMNWVKQSPGQSLEWIGRIHPYDGHTFYNQKFQGKATLTVDKSSNTAHMELLSLTSEDFAVYYCTRYDGSRAMDYWGQGTTVTVSS VL: DIVLTQSPLSLAVSLGQPAIISCKASQSVSFAGTSLMHWYHQKPGQQPRLLIYRASNLEAGVPDRFSGSGSKTDFTLTISPVEAEDAATYYCQQSREYPYTFGGGTKLEIK	binds
MYT0618 (antibody, V domains shown, IgG) VH: QVQLVQSGAEVVKPGASVKISCKASGYTFTGYFMNWVKQSPGQSLEWIGRIHPYDGDHFYNQKFQGKATLTVDKSSNTAHMELLSLTSEDFAVYYCTRYDGSRAMDYWGQGTTVTVSS VL: DIVLTQSPLSLAVSLGQPAIISCKASQSVSFAGTSLMHWYHQKPGQQPRLLIYRASNLEAGVPDRFSGSGSKTDFTLTISPVEAEDAATYYCQQSREYPYTFGGGTKLEIK	binds
MYT0605 (antibody, V domains shown, IgG) VH: QVQLVQSGAEVVKPGASVKISCKASGYTFTHYFMNWVKQSPGQSLEWIGRIHPYDGDTFYNQKFQGKATLTVDKSSNTAHMELLSLTSEDFAVYYCTRYDGSRAMDYWGQGTTVTVSS VL: DIVLTQSPLSLAVSLGQPAIISCKASQSVSFAGTSLMHWYHQKPGQQPRLLIYRASNLEAGVPDRFSGSGSKTDFTLTISPVEAEDAATYYCQQSREYPYTFGGGTKLEIK	binds
MYT0616 (antibody, V domains shown, IgG) VH: QVQLVQSGAEVVKPGASVKISCKASGYTFTGYFMNWVKQSPGQSLEWIGRIHPYDHDTFYNQKFQGKATLTVDKSSNTAHMELLSLTSEDFAVYYCTRYDGSRAMDYWGQGTTVTVSS VL: DIVLTQSPLSLAVSLGQPAIISCKASQSVSFAGTSLMHWYHQKPGQQPRLLIYRASNLEAGVPDRFSGSGSKTDFTLTISPVEAEDAATYYCQQSREYPYTFGGGTKLEIK	binds
MYT0600 (antibody, V domains shown, IgG) VH: QVQLVQSGAEVVKPGASVKISCKASHYTFTGYFMNWVKQSPGQSLEWIGRIHPYDGDTFYNQKFQGKATLTVDKSSNTAHMELLSLTSEDFAVYYCTRYDGSRAMDYWGQGTTVTVSS VL: DIVLTQSPLSLAVSLGQPAIISCKASQSVSFAGTSLMHWYHQKPGQQPRLLIYRASNLEAGVPDRFSGSGSKTDFTLTISPVEAEDAATYYCQQSREYPYTFGGGTKLEIK	binds
MYT0610 (antibody, V domains shown, IgG) VH: QVQLVQSGAEVVKPGASVKISCKASGYTFTGYFMNWVKQSPGQSLEWIGHIHPYDGDTFYNQKFQGKATLTVDKSSNTAHMELLSLTSEDFAVYYCTRYDGSRAMDYWGQGTTVTVSS VL: DIVLTQSPLSLAVSLGQPAIISCKASQSVSFAGTSLMHWYHQKPGQQPRLLIYRASNLEAGVPDRFSGSGSKTDFTLTISPVEAEDAATYYCQQSREYPYTFGGGTKLEIK	binds
